The record followed here is patent US20230265183A1 (MABWELL SHANGHAI BIOSCIENCE, published 2023).

Experiment [1] has as its target T1, human Nectin-4 (human, UniProt Q96NY8 32-510).
T1 construct: whole, on cells; Cell-surface target of the FACS, endocytosis and proliferation assays (CHO-huNectin4 S8 cells, BT474 cells); the assay field says which cells; also called huNectin4; PVRL4
T1 sequence (looked up): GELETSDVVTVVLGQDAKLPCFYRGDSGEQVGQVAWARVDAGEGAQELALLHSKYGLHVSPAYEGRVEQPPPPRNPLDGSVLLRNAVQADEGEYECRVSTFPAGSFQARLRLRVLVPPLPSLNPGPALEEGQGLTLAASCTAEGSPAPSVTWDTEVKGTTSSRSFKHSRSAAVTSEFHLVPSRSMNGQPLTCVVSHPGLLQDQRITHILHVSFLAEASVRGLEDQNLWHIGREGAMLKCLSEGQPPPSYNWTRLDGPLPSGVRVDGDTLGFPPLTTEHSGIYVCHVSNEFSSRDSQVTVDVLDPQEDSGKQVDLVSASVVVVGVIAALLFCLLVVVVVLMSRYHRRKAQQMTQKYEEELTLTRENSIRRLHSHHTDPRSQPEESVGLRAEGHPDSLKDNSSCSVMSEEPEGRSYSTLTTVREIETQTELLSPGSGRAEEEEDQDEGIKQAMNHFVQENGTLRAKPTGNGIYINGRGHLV
Nature of the experiment: FACS on BT474 cells. The protocol: (§1) The solutions of different concentrations were added to 384-well plates, 10 µl per well.
(§2) BT474 cells (breast cancer cells) expressing Nectin-4 on the cell surface were collected by centrifugation at 100 g at room temperature for 5 minutes, and then the cells were washed with PBS containing 0.5% BSA once and were centrifuged at 100 g at room temperature for 5 minutes. […] After incubation at 4° C. for 1 hour, fluorescently labeled goat anti-human IgG secondary antibody was added. After continued incubation at 4° C. for 1 hour, mean fluorescence readings of the cell populations were analyzed by a flow cytometer.
(§3) The experiment results of the binding of engineered humanized molecules of the present disclosure to BT474 cells by FACS assay are shown in panels 3B and 3C in FIG. 3 and Tables 6 and 7.

The target of experiment [2] is T1, human Nectin-4. Nature of the experiment: cell-based or functional assay.
For experiment [3], the target named is T1, human Nectin-4. Nature of the experiment: FACS on BT474 cells. The procedure: as §1, §2, §3
The source holds these as a separate data set.

Experiment [4] has as its target T1, human Nectin-4. Briefly: cell-based or functional assay. This is another data set of the same source.
Experiment [5] concerns the target T2, His-tagged human NECTIN4 (human, UniProt Q96NY8 32-349).
T2 construct: Antigen of the BIAcore assay; also called antigen; recombinant NECTIN4 protein; not shown: His tag
T2 sequence: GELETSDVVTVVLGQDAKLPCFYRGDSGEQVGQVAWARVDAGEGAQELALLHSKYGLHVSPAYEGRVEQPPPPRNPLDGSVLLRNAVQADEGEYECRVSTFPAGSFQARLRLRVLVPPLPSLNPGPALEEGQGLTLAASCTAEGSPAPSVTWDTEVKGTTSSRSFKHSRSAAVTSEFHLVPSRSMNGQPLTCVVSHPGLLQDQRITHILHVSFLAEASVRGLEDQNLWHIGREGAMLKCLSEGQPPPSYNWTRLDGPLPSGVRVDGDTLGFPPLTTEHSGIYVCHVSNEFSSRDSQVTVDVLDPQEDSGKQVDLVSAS
Nature of the experiment: SPR (BIAcore S200), antigen on CAP chip, antibody as analyte, 1:1 fit. The protocol: Interactions between the antibodies and the antigen were measured using a BIAcore instrument S200 from GE. Referring to the instructions provided in Biotin Capture Kit from GE Healthcare, the analytical channel and the control sample channel on CAP sensor chip were first coupled with antigen i.e. His-tagged human NECTIN4, then samples containing antibodies (diluted 3-fold from an initial concentration of 20 nM respectively and solutions of each antibody of 8 concentrations were obtained totally, and the concentration 0.741 nM was set to be repeated) were allowed to flow through both the analytical channel and the sample channel, and the photoreactions upon antibody-antigen binding were measured. Association constant Kon and dissociation constant Koff and affinity constant KD of each antibody were finally obtained by instrument software fitting (1:1 binding mode) analysis.
On the technique in general: SPR reads the build-up and loss of mass on a sensor chip optically.

Read-outs that look alike come from different tables or passages of the source.

B1: 5M21 hz00 (antibody, human IgG1, kappa, V domains shown)
VH: QVQLVQSGAEVKKPGASVKVSCKASGYTFTTYYIHWVRQAPGQRLEWMGWIYPGNVNTKYNEKFKGRVTITRDTSASTAYMELSSLRSEDTAVYYCARGLYYFDYWGQGTLVTVSS
VL: DIQMTQSPSSLSASVGDRVTITCKASQSVSNDVAWYQQKPGKVPKLLIYYASNRYTGVPSRFSGSGSGTDFTLTISSLQPEDVATYYCQQDYSSPYTFGGGTKVEIKR
notes: Humanized
B1 registered a 50% effective concentration (EC50) in experiment [1] of 52.2 µg/mL. In addition, the “Endocytosis efficiency (%)” value in experiment [2] is 54.8%.

B2: 5M21 hz01 (antibody, human IgG1, kappa, V domains shown)
VH: QVQLVQSGAEVKKPGASVKVSCKASGYTFTTYYIHWVRQAPGQRLEWMGWIYPGNVNTKYNEKFKGRVTITRDTSASTAYMELSSLRSEDTAVYYCARGLYYFDYWGQGTLVTVSS
VL: DIQMTQSPSSLSASVGDRVTITCKASQSVSNDVAWYQQKPGKVPKLLIYYASNRYTGVPSRFSGSGSGTDFTLTISSLQPEDLATYFCQQDYSSPYTFGGGTKVEIKR
notes: Humanized
In turn, B2 displayed a half-maximal effective concentration (EC50) in experiment [1] of 48.1 µg/mL. Also, the “Endocytosis efficiency (%)” value in experiment [2] amounted to 62.2%.

B3: 5M21 hz10 (antibody, human IgG1, kappa, V domains shown)
VH: QVQLVQSGAEVKKPGASVKVSCKASGYTFTTYYIHWVRQAPGQRLEWMGWIYPGNVNTKYNEKFKGRVTITADKSASTAYMELSSLRSEDTAVYYCARGLYYFDYWGQGTLVTVSS
VL: DIQMTQSPSSLSASVGDRVTITCKASQSVSNDVAWYQQKPGKVPKLLIYYASNRYTGVPSRFSGSGSGTDFTLTISSLQPEDVATYYCQQDYSSPYTFGGGTKVEIKR
notes: Humanized
As to B3, in experiment [1], it took 44.3 µg/mL to reach a half-maximal effect (EC50). In experiment [2], the “Endocytosis efficiency (%)” value is 64.8%.

B4: 5M21 hz11 (antibody, human IgG1, kappa, V domains shown)
VH: QVQLVQSGAEVKKPGASVKVSCKASGYTFTTYYIHWVRQAPGQRLEWMGWIYPGNVNTKYNEKFKGRVTITADKSASTAYMELSSLRSEDTAVYYCARGLYYFDYWGQGTLVTVSS
VL: DIQMTQSPSSLSASVGDRVTITCKASQSVSNDVAWYQQKPGKVPKLLIYYASNRYTGVPSRFSGSGSGTDFTLTISSLQPEDLATYFCQQDYSSPYTFGGGTKVEIKR
notes: Humanized
In turn, B4 showed a 50% effective concentration (EC50) in experiment [1] of 44.5 µg/mL. Further, the “Endocytosis efficiency (%)” value in experiment [2] stood at 64.4%.

B5: chimeric antibody 5M21 xiIgG (antibody, V domains shown)
VH: QVQLQQSGPELVKPGASVRITCKASGYTFTTYYIHWVKQRPGQGLEWIGWIYPGNVNTKYNEKFKGKATLTADKSSSTAYMQLSSLTSEDSAVYFCARGLYYFDYWGQGTTLTVSS
VL: SIVMTQTPKFLLVSAGDRLTITCKASQSVSNDVAWYQQKPGQSPKLLIYYASNRYTGVPDRFTGSGYGTDFTFTISTVQAEDLAVYFCQQDYSSPYTFGGGTKLEIKR
For B5, the midpoint of the response in experiment [1], the EC50, lay at 46.1 µg/mL. In addition, the “Endocytosis efficiency (%)” value in experiment [2] stood at 56.9%.

B6: chimeric antibody 42D20 xiIgG (antibody, V domains shown)
VH: QVQLKESGPGLVAPSQSLSISCTVSGFSLIDYGVSWIRQPPGKGLEWLGVIWGDGKIYYNSVLKSRLSISKDNSKSQVFLKMNSLQTDDTAMYYCAKQGGLLFYAMDYWGQGTSVTVSS
VL: DIVMTQSPSSLAMSVGQRVTMNCKSSQSLLNSYSQKNYLAWYQQKPGQSPKLLIYFASTRESGVPDRFIGSGSETDFTLTISSVQAEDLADYFCQQHYNTPFTFGSGTKLEIKR
For B6, the EC50 in experiment [3] turned out to be 77 ng/mL. In addition, the “Endocytosis efficiency (%)” value in experiment [4] came to 54%. In experiment [5], this molecule registered a dissociation constant (Kd) of 1.01 nM, a koff of 0.000798 s⁻¹ and a kon of 790000 M⁻¹ s⁻¹.

B7: 42D20 hz23 (antibody, V domains shown)
VH: QVQLQESGPGLVKPSETLSLTCTVSGFSLIDYGVSWIRQPPGKGLEWIGVIWGEGKIYYNSVLKSRVTISKDNSKSQVSLKLSSVTAADTAVYYCAKQGGLLFYAMDYWGQGTLVTVSS
VL: DIVMTQSPDSLAVSLGERATINCKSSQSLLNTYSQKNYLAWYQQKPGQSPKLLIYFASTRESGVPDRFSGSGSETDFTLTISSLQAEDLAVYFCQQHYNTPFTFGAGTKLELKR
notes: Humanized
Consider B7, for which the EC50 in experiment [3] amounted to 50.3 ng/mL. In addition, the “Endocytosis efficiency (%)” value in experiment [4] was determined as 45%.

The term EC50 denotes the concentration needed to bring the measured effect to its halfway point. A lower EC50 goes with an effect from little substance. The Kd is a measure of binding affinity in units of concentration. A low value points to higher affinity. Usually koff stands for a measure of how fast the partners let go of each other. As a reminder, the kon is the rate constant with which the complex forms.
